No end group written: not given here.
Legend:
[1] = molecular target: T1, biotinylated BMP-2 (Homo sapiens, UniProt P12643); test: Amplified luminescent proximity homogenous assay (ALPHA); format: binding; details: chemically synthesized peptides, FIG. 6, normalized to molar concentration
T1 construct: purchased R&D Systems 355-BM/CF
T1 sequence (P12643 283-396): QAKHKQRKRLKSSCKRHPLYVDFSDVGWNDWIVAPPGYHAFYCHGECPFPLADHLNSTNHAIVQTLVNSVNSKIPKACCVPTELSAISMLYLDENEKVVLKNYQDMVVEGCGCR
Experimental: Concentration dependent binding efficiency of BMP-2 to the affinity peptides was evaluated using an ALPHA assay.
Diluted stock of biotinylated BMP-2 (R&D Systems, Minneapolis, Minn., Item number 355-BM/CF) at 3.3 micrograms/ml was prepared in 2× assay buffer (PBS, 0.01% Tween-80, 0.05% BSA). Chemically synthesized peptides having SEQ ID NO: 1, SEQ ID NO: 2, SEQ ID NO: 3, and SEQ ID NO: 6 were prepared using standard, automated Fluorenylmethyloxycarbonyl (Fmoc) solid phase peptide synthesis procedures. Each peptide solution for the assay was prepared from a 100 microgram/mL stock solution. The stock solution was serially diluted in ½ log steps in assay buffer resulting in peptide concentrations of 100, 33.3, 11.1, 3.70, 1.23, 0.41, 0.14, 0.046, 0.015, 0.0051, 0.0017 and 0.00056 micrograms/mL. Subsequently, serially diluted peptides were added to the corresponding wells containing the 10 microliters of the 3.3 microgram/mL solution of biotinylated BMP-2. Final assay test concentration for biotinylated BMP-2 was 0.825 micrograms/mL. Final peptide concentrations were 25, 8.3, 2.8, 0.93, 0.31, 0.10, 0.03, 0.01, 0.003, 0.001, 0.0003 and 0.0001 micrograms/mL. Next, Nickel (Ni)-acceptor and streptavidin (SA)-donor beads (Perkin Elmer, Waltham, Mass., Item number 6760619M) were diluted 1:100 in assay buffer prior to adding 20 microliters to each test well. Controls included BMP-2 alone in three different concentrations as well as SA beads with no peptide. The plate was made light-safe with an aluminum seal and shaken for 45 minutes on a table-top shaker at room temperature. The emission of the plate was read using a dual wavelength fluorometer (Perkin Elmer (Waltham, Mass.) Envision 2101 Multilabel Reader).
The ALPHA data in FIG. 6 was normalized to molar concentration based on the molecular weights of the peptide sequences.

[2] = tested on: MCHT-1/26 cells (mouse osteoblast cell line); test: Alkaline phosphatase bioactivity assay in the presence of BMP-2; format: cell-based; details: peptide at 16, 160 and 800 nM, BMP-2 0-1000 ng/ml, 3 days, FIG. 7
Experimental: In this experiment, we determined if the affinity peptides would interfere with the cell surface receptor binding to BMP-2 using mouse osteoblasts. The alkaline phosphatase (ALP) production was monitored the presence of BMP-2 with and without affinity peptides.
Passage two MCHT-1/26 cells (mouse osteoblast cell line) were plated out in a 96 well plate the night before at 4500 cells/well. Cells were stimulated with serial dilution of BMP-2 in a range 0-1000 ng/ml in the presence or absence of 3 dilutions of peptide SEQ ID NO: 6 at 16, 160 and 800 nM. After incubation at 37° C. for 3 days, cells were lysed with lysis buffer (250 mM NaCl, 25 mM MgCl2 and 100 mM Tris, pH=8.0) overnight at 37° C. One third of the lysate was used for alkaline phosphatase assay with p-nitrophenylphosphate. The reaction was carried out at 37° C. for one to two hours. Next, the plate was read on an absorbance plate reader at a wavelength of 405 nm.

[3] = molecular target: human serum albumin (HSA) (Homo sapiens, UniProt P02768); test: Cross-reactivity phage ELISA assay toward human serum albumin; format: binding; details: relative luminescence, N=2
Experimental: (§1) In this experiment, we are confirming the binding of the phage identified in Example 1 to BMP-2.
(§2) 96-well black ELISA plates were coated with streptavidin (Rows A through D), hIgG (Rows E and F) and human serum albumin (Rows G and H), at a concentration of 5 micrograms/mL in PBS. Plates were incubated overnight at 4° C. Plates were washed 3 times with TBST using a plate washer. To the streptavidin-coated wells in rows C and D, 100 microliters of a 4 micrograms/mL solution of biotinylated-BMP-2 (R&D Systems, Minneapolis, Minn., Item number 355-BM/CF), was introduced and allowed to sit at room temperature for 30 minutes. To all other wells, 100 microliters of PBS was introduced. The plates were again washed 3 times with TBST using the plate washer. The wells were then blocked with 250 microliters of a 3% dehydrated milk suspension in TBST and allowed to sit at room temperature for a minimum of 1 hour. Using phage concentrations determined by the phage titrations, dilutions of the phage stock solutions were performed in a separate 96-well plate to result in phage concentrations of 10^10, 10^9, 10^8, 10^7, 10^6 and 10^5 phage/well. […] The luminescence was read using a luminometer set with a gain of 150.
(§3) The phage ELISA data in FIG. 3, FIG. 4 and FIG. 5 show relative luminescence and have an N value of 2. […]

[4] = tested on: hIgG; test: Cross-reactivity phage ELISA assay toward hIgG; format: binding, human; details: relative luminescence, N=2
Experimental: as §1, §2, §3

[5] = molecular target: T2, BMP-2 (Homo sapiens, UniProt P12643); test: Mutant phage ELISA (serine scan); format: binding; details: FIG. 11A, FIG. 11B
T2 construct: purchased R&D Systems 355-BM/CF
T2 sequence (P12643 283-396): T1 sequence (P12643 283-396)
Description: Mutants of SEQ ID NO: 3 and SEQ ID NO: 6 were constructed by performing a serine scan where residues of the wild type were substituted with serine. […] SEQ ID NO: 24 through SEQ ID NO: 28 are mutants of SEQ ID NO: 3. SEQ ID NO: 29 through SEQ ID NO: 32 are mutants of SEQ ID NO: 6.
The respective custom oligonucleotide was obtained from Integrated DNA Technologies. The oligonucletides were inserted into the pIX gene using standard protocols. First, the oligonucletides were phosphorylated using T4 polynucleotide kinase. Next, the phosphorylated oligonucletides were annealed to the ssDNA template. Using the Kunkel method, the annealed DNA was ligated using T4 DNA ligase and T7 DNA polymerase. The resultant DNA was isolated using isopropanol precipitation and a gel was run to confirm the reaction. Lastly, electro-competent E. coli cells were transformed with the purified DNA and were plated out onto 2xYT/Tet/Xgal agar plates and allowed to grow overnight to isolate single colonies. An aliquot of the transformed cells was allowed to grow overnight at 37° C. while shaking in 50 mL 2xYT/tet media. The phage were then PEG precipitated following the procedure in Example 1. A phage titration was performed to determine the concentration of phage for the ELISA assay as described in Example 2. ELISA assays were performed following the procedure in Example 3.

Q: How did the “ranking according to concentration-dependent binding to BMP-2” value (shortened to “ranking according”) [1] turn out when AGRDSFNLLTSSPLPST [SEQ ID NO: 6] was run?
A: SEQ ID NO: 6>SEQ ID NO: 3>SEQ ID NO: 2>SEQ ID NO: 1

Q: And the “effect on the ALP production of mouse osteoblasts” value [2]?
A: minimal effect

Q: AGYTSFALLKSAESTLP [SEQ ID NO: 3] was tested. Which “ranking according” value [1] did it give?
A: SEQ ID NO: 6>SEQ ID NO: 3>SEQ ID NO: 2>SEQ ID NO: 1

Q: How did the “ranking according” value [1] turn out when “SEQ ID NO: 1: affinity peptide toward BMP-2 identified by pIX phage display, sequence in FIG. 1 (AGLPLQSMSRLSYDSLS)” was run?
A: SEQ ID NO: 6>SEQ ID NO: 3>SEQ ID NO: 2>SEQ ID NO: 1

Q: For “SEQ ID NO: 2: affinity peptide toward BMP-2 identified by pIX phage display, sequence in FIG. 1 (AGPPGPYIAASAFLALK)”, which “ranking according” value [1] is on record?
A: SEQ ID NO: 6>SEQ ID NO: 3>SEQ ID NO: 2>SEQ ID NO: 1

Q: How did the “cross-reactivity with HSA” value [3] turn out when “SEQ ID NO: 4: affinity peptide toward BMP-2 identified by pIX phage display, sequence in FIG. 1 (AGFRWWHTQPAHTLSYT)” was run?
A: binds to both hIgG and HSA

Q: What about the “cross-reactivity with hIgG” value [4] of the same substance?
A: binds to both hIgG and HSA

Q: With “SEQ ID NO: 33: a fragment of SEQ ID NO: 3, shown in FIG. 12 (AGYTSFALLKS)” as the substance, how does the “binding to BMP-2 in mutant phage ELISA” value [5] read?
A: important for binding to BMP-2

Q: How did the “binding to BMP-2 in mutant phage ELISA” value [5] turn out when “SEQ ID NO: 34: a fragment of SEQ ID NO: 6, shown in FIG. 12 (AGRDSFNLLTS)” was run?
A: important for binding to BMP-2
